Measured values taken from patent US20230203146A1 (Boehringer Ingelheim, published 2023).
Read-outs that look alike come from different tables or passages of the source.

Experiments:
[1] = target: T1, N-terminally FLAG-tagged mouse Ang2 (HEK293T conditioned medium) (mouse, UniProt O35608 19-496); assay: competition ELISA, FLAG-mAng2 on coated mTie2-Fc
T1 construct: may be a nucleotide entry; also called mAng2; FLAG-mAng2
T1 sequence: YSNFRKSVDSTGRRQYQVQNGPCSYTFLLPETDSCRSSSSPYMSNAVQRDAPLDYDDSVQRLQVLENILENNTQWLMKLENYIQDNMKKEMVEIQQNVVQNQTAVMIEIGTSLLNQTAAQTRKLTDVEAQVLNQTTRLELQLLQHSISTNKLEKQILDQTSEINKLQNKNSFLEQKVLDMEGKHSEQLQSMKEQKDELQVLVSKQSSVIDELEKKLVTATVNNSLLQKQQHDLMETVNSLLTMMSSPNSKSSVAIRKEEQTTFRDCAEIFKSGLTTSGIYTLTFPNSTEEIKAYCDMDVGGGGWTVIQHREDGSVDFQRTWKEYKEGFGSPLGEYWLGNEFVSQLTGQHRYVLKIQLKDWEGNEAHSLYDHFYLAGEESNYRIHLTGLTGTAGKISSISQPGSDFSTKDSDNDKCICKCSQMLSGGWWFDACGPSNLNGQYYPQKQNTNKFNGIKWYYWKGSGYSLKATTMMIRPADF
Procedure: (§1) In brief, 2 μg/mL of recombinant mouse Tie2-Fc or cyno Tie2-Fc is coated overnight at 4° C. in a 96-well MaxiSorp plate (Nunc, Wiesbaden, Germany). Coated wells are blocked with a 1% casein solution.

[2] = target: T2, N-terminally FLAG-tagged cynomolgus Ang2 (HEK293T conditioned medium) (cynomolgus, UniProt O15123 19-496 (human entry), limits assumed); assay: competition ELISA, FLAG-cAng2 on coated cTie2-Fc
T2 construct: may be a nucleotide entry; also called cAng2; FLAG-cAng2
T2 chain: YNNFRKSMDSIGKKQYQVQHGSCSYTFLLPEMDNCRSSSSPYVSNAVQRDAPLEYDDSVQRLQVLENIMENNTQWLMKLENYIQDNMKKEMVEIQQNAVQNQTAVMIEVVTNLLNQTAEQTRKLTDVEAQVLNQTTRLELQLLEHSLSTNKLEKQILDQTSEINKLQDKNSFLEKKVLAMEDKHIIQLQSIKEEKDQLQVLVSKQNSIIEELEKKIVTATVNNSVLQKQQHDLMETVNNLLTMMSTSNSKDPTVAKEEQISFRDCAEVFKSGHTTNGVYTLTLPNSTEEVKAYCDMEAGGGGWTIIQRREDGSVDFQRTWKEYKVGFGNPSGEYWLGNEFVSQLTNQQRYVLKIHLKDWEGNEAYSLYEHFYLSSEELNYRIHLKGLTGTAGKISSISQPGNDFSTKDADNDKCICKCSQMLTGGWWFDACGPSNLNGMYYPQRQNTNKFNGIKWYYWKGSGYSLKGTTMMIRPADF
Procedure: as §1

[3] = target: T1, N-terminally FLAG-tagged mouse Ang2 …; assay: competition ELISA, FLAG-mAng2 on coated mTie2-Fc; remark: listed apart in the source
Procedure: as §1

[4] = target: T3, FLAG-tagged recombinant human Ang1 (Alexis Biochemicals) (human, UniProt Q15389 20-498, limits assumed); assay: competition ELISA, FLAG-hAng1 (0.02 nM) on coated hTie2-Fc
T3 construct: Bought reagent; also called hAng1; FLAG-hAng1
T3 sequence (looked up): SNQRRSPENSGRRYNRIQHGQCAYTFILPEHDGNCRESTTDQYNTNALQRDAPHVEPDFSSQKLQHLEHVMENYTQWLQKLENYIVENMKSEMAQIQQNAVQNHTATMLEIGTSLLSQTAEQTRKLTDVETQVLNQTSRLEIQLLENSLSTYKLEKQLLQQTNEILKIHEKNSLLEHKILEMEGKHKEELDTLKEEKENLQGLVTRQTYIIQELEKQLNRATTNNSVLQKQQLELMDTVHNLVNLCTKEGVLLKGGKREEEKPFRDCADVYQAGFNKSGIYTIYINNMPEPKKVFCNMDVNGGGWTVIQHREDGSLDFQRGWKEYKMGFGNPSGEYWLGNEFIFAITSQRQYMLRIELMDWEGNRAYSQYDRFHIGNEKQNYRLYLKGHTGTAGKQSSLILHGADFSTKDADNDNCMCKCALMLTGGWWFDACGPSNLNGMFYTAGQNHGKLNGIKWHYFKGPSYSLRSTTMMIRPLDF
Procedure: (§2) In brief, 2 μg/mL of recombinant human Tie2-Fc (R&D Systems, Minneapolis, Minn., USA) is coated overnight at 4° C. in a 96-well MaxiSorp plate (Nunc, Wiesbaden, Germany). Coated wells are blocked with a 1% casein solution.

[5] = target: T4, recombinant cynomolgus Ang2-FLD (cynomolgus); assay: SPR (Biacore T100), binder on CM5 chip, Ang2-FLD as analyte
T4 construct: domain: FLD; also called cyno Ang2-FLD
Procedure, shortened: (§3)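 Binders were immobilized by amine coupling onto a CM5 sensor chip, and Ang2-FLD from each species was passed over as analyte at 45 μL/min, with 2 min association and 20 min dissociation. Surfaces were regenerated between injections using a 10 sec 25 mM NaOH pulse and 60 sec stabilization. Rate constants came from a 1:1 Langmuir fit, and KD was derived from them.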

[6] = target: T5, recombinant human Ang2-FLD (human, UniProt O15123 275-496, limits assumed); assay: as above
T5 construct: domain: FLD; not used
T5 sequence (looked up): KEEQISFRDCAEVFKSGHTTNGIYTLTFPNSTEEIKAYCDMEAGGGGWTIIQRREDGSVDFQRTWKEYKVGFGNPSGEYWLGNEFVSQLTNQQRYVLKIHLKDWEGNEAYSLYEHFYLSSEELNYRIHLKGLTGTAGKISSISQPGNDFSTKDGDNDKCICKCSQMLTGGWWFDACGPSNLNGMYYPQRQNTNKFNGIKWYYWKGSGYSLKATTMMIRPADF
Procedure, shortened: as §3

[7] = target: T6, recombinant mouse Ang2-FLD (mouse, UniProt O35608 275-496, limits assumed); assay: as above
T6 construct: domain: FLD
T6 sequence (looked up): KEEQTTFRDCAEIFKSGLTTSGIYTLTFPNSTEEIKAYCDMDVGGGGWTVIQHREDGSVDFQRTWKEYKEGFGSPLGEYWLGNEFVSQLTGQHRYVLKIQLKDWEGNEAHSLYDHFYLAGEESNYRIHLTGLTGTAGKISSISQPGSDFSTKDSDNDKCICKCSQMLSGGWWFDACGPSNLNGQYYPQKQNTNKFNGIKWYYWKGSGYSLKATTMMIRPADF
Procedure, shortened: as §3

[8] = target: T3, FLAG-tagged recombinant human Ang1 …; assay: ratio of IC50 in hAng1/hTie2 ELISA to IC50 in hAng2/hTie2 ELISA
Procedure: In brief, 2 μg/mL of Tie2/Fc chimera (R&D Systems, Minneapolis, Minn., USA) is coated in a 96-well MaxiSorp plate (Nunc, Wiesbaden, Germany).
as §2

FLAG-tagged mouse Ang2 [9] = target: T7, FLAG-tagged mouse Ang2 (mouse, UniProt O35608 19-496); assay: competition ELISA: FLAG-mAng2 binding to coated mTie2-Fc
T7 construct: N-terminally FLAG-tagged, conditioned medium of HEK293T cells; also called mAng2; FLAG-mAng2
T7 sequence: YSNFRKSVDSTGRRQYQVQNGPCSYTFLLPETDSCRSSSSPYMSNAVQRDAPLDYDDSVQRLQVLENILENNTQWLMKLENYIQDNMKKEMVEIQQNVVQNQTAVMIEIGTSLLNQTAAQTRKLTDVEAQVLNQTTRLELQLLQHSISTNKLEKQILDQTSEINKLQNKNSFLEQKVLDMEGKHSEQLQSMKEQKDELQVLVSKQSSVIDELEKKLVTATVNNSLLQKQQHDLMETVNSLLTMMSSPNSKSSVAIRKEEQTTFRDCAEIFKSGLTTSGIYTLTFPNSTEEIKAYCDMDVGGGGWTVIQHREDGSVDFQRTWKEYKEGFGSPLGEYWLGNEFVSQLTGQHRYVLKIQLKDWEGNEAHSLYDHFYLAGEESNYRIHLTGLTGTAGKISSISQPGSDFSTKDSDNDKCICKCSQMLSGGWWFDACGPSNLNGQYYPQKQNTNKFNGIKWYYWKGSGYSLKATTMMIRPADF
Procedure: as §1

[10] = target: T8, FLAG-tagged cynomolgus Ang2 (cynomolgus, UniProt O15123 19-496 (human entry), limits assumed); assay: competition ELISA: FLAG-cAng2 binding to coated cTie2-Fc
T8 construct: N-terminally FLAG-tagged, conditioned medium of HEK293T cells; also called cAng2; FLAG-cAng2
T8 chain: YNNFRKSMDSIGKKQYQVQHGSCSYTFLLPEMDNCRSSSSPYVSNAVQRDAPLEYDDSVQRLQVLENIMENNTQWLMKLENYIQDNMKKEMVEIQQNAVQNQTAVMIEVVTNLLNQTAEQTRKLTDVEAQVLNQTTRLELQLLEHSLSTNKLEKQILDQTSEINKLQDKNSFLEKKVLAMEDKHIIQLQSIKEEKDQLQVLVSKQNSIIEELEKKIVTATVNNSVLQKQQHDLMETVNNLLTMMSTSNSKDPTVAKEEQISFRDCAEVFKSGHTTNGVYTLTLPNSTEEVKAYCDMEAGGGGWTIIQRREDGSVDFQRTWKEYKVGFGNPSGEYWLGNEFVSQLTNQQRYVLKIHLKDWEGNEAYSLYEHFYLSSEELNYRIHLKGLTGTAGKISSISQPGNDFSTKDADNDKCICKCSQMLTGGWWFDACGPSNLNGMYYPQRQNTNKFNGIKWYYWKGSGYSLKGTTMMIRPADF
Procedure: as §1

FLAG-tagged mouse Ang2 [11] = target: T7, FLAG-tagged mouse Ang2; assay: competition ELISA: FLAG-mAng2 binding to coated mTie2-Fc; remark: listed apart in the source
Procedure: as §1

[12] = target: T8, FLAG-tagged cynomolgus Ang2; assay: competition ELISA: FLAG-cAng2 binding to coated cTie2-Fc
Procedure: as §1

[13] = target: T9, recombinant mouse Ang2-FLD (mouse, UniProt O35608 275-496, limits assumed); assay: SPR (Biacore T100), VHH immobilized, Ang2-FLD injected
T9 construct: domain: FLD
T9 sequence (looked up): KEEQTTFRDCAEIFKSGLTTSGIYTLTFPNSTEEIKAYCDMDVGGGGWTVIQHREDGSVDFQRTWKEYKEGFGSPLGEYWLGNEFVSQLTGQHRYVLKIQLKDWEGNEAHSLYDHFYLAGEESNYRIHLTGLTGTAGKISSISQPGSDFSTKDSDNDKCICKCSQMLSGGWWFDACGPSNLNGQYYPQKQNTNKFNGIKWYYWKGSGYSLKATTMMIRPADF

recombinant rat Ang2-FLD = target: T10, recombinant rat Ang2-FLD (rat, UniProt O35462 275-496, limits assumed); assay: as above
T10 construct: domain: FLD
T10 sequence (looked up): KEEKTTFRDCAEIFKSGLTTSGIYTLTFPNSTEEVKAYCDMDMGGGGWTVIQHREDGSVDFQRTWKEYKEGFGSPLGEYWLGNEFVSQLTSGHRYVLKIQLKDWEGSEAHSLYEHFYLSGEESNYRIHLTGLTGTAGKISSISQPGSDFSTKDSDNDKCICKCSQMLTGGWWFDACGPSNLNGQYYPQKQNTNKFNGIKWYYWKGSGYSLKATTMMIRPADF

[14] = target: T11, recombinant human Ang2-FLD (human, UniProt O15123 275-496, limits assumed); assay: as above
T11 construct: domain: FLD
T11 sequence (looked up): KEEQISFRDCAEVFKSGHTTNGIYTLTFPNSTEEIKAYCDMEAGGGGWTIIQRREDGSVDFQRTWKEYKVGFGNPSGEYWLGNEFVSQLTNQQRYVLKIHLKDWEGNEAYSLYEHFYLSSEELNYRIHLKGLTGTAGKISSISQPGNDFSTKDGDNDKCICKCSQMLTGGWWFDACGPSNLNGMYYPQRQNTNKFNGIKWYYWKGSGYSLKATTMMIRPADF

[15] = target: T12, recombinant cynomolgus Ang2-FLD (cynomolgus, UniProt A0A2K5VNX6 275-496); assay: as above
T12 construct: domain: FLD; also called cyno Ang2-FLD
T12 sequence: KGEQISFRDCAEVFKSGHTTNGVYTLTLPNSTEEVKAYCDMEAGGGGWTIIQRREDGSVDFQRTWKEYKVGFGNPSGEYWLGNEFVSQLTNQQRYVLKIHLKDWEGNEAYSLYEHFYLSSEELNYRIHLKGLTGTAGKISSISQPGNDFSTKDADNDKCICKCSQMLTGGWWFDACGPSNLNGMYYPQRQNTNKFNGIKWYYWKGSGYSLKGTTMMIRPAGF

B1: VHH 10H02 (VHH)
VHH: EVQLVESGGGSVQAGGSLRLSCAASGFTFDDYAIGWFRQAPGKEREGVSCISSSDGSTNYADSVKGRFTISSDTAKNTVYLQMNSLKPEDTAVYYCTAVPATRRTPQMVDANMCWLAEYEYDYWGQGTQVTVSS
notes: also called 010H02; not shown: C-terminal c-myc tag and His6 tag
IC50 [1]: 5.2 nM
IC50 [2]: 23.7 nM
IC50 [3]: 21.4 nM
IC50 [4]: 2000 nM
Kd [5]: 3.4 nM
koff [5]: 0.023 s⁻¹
kon [5]: 6.9e+06 M⁻¹ s⁻¹
Kd [6]: 3.6 nM
koff [6]: 0.021 s⁻¹
kon [6]: 5.7e+06 M⁻¹ s⁻¹
Kd [7]: 11 nM
koff [7]: 0.026 s⁻¹
kon [7]: 2.5e+06 M⁻¹ s⁻¹
hAng1/hAng2 ratio [8]: 230

B2: VHH 28D10 (VHH, not shown: small tags and cut ends)
VHH: EVQLVESGGGLVQAGGSLRLSCAASGFTLDDYAIGWFRQAPGKEREGVSCIRDSDGSTYYADSVKGRFTISSDNDKNTVYLQMNSLKPEDTAVYYCAAVPAGRLRFGEQWYPLYEYDAWGQGTQVTVSS
notes: Parental llama VHH; also called 028D10
IC50 (FLAG-tagged mouse Ang2 [9]): 5.7 nM
IC50 [10]: 2.1 nM
IC50 (FLAG-tagged mouse Ang2 [11]): 5.7 nM
IC50 [12]: 2.1 nM

B3: VHH 00919 (VHH, not shown: small tags and cut ends)
VHH: EVQLVESGGGLVQPGGSLRLSCAASGFTLDDYAIGWFRQAPGKEREGVSAIRDNGGSTYYADSVKGRFTISSDNSKNTVYLQMNSLRPEDTAVYYCAAVPAGRLRFGEQWYPLYEYDAWGQGTLVTVSS
Kd [13]: 3 nM
koff [13]: 0.0039 s⁻¹
kon [13]: 1.3e+06 M⁻¹ s⁻¹
Kd (recombinant rat Ang2-FLD): 10 nM
koff (recombinant rat Ang2-FLD): 0.005 s⁻¹
kon (recombinant rat Ang2-FLD): 500000 M⁻¹ s⁻¹
Kd [14]: 1.6 nM
koff [14]: 0.0015 s⁻¹
kon [14]: 950000 M⁻¹ s⁻¹
Kd [15]: 0.54 nM
koff [15]: 0.0012 s⁻¹
kon [15]: 2.3e+06 M⁻¹ s⁻¹
IC50 (FLAG-tagged mouse Ang2 [9]): 1.8 nM
IC50 [12]: 0.7 nM
